Laboratory results: USRE43497 (FRAUNHOFER GESELLSCHAFT ZUR FORDERUNG DER ANGEWANDTEN …, dated 2012)

Tests used:
[1] = target: T1, biotin-labelled Jab1 (in vitro translated) (human, UniProt Q92905 2-334, biotin-labelled during in vitro translation (Transcend non-radioactive translation detection system); positions not stated); assay: competition with wildtype MIF for biotin-Jab1 in TNT reticulocyte lysate
T1 construct: also called biotin-Jab1; biotin-labelled p38^Jab1

[2] = target: T2, Recombinant human MIF (macrophage migration inhibitory factor) (human, UniProt P14174 2-115); assay: assay not described
T2 construct: Used soluble (1 uM in TNT lysates); also called rMIF; rwtMIF
T2 sequence (P14174 2-115 limits assumed): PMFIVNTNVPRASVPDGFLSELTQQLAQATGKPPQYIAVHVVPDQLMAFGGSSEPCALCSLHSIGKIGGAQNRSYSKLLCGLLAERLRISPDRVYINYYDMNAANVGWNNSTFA

T1 sequence (Q92905 2-334 limits assumed): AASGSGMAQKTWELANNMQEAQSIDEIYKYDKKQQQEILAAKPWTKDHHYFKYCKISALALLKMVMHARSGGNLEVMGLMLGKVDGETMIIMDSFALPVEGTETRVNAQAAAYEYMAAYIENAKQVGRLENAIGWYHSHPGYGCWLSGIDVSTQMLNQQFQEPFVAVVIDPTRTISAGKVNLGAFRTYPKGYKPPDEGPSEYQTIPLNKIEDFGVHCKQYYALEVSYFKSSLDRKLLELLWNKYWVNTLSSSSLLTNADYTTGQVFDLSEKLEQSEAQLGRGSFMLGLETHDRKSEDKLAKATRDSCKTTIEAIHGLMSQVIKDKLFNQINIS

| binding result [1] | binding result [2] | Binder |
| --- | --- | --- |
| binds | – | FGGSSEPSALSSLHSI (also called analogue of the MIF (50-65) peptide with the two Cys residues substituted for Ser) [Ser^57 Ser^60 MIF (50-65) peptide] |
| binds | – | FGGSSEPCALCSLHSI (16 residues, positions 50-65 of wildtype MIF; also called MIF peptide (50-65); Cys60-spanning 16 residue MIF peptide) [MIF (50-65) peptide] |
| – | no binding | p27^Kip1 (other, UniProt P46414 1-197, looked up) MSNVRVSNGSPSLERMDARQAEHPKPSACRNLFGPVNHEELTRDLEKHCRDMEEASQRKWNFDFQNHKPLEGRYEWQEVERGSLPEFYYRPPRPPKSACKVLAQESQDVSGSRQAVPLIGSQANSEDRHLVDQMPDSSDNPAGLAEQCPGMRKRPAAEDSSSQNKRANRTEENVSDGSPNAGTVEQTPKKPGLRRQT |
